Target: UNG2 S23D/T60D/S64D (human) (UniProt P13051)
Assay: co-IP

UniProt P13051, sequence (P13051 whole entry S23D/T60D/S64D): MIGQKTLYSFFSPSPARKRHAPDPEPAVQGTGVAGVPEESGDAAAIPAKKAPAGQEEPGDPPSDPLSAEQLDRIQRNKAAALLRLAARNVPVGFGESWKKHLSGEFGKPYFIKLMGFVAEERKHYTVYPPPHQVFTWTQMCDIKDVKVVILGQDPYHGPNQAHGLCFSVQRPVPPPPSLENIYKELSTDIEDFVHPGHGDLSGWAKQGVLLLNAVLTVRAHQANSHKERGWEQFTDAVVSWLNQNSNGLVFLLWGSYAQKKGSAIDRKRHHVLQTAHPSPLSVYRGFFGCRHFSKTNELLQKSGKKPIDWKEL

## replication protein A (RPA) (from UniProt P15927 1-270) (complex)
  RPA-binding capacity relative to WT UNG2: 40%

Source: PMC2147998
